In the DeepSol protein solubility set:

Test: soluble on expression in E. coli; label from the status in PepcDB or PDB records

Row | Sequence | soluble on expression in E. coli
1 | MGSDKIHHHHHHMSKKQFLDQLWARMAQKGDFPTLQYCIDNVFKTLNSDLSVGEMASTVLSDFSLSQKVIRLANSAMYRSFGGEVTTVSRAIMVLGVDTITHLTLGVQVLDFFQGVAPNRPQAARALKQAIMAGEITRALNDARGILGGEEGVVCTLMHHVSRLLVIFYFPDEWDRIMALSADGAMSENDACREVIDISLDDLAKAAAFRWRLPALIADGMLGRELHEETVLETHADWLGAVASLSSDAAASILAEQPEEVVLEPLLTHAQKLGLEPSHVNVAIQQAGTLKASMARSEAPDTGVGSLPDDGGKPADTLTRLQQALAEIRQEGAGMTVSQLAPLVLESAMRALNFSHCFLMLLHPTNKRFGARLGFGEGMRDKLEKLSFEEGFVPDVFHFAMIAPKPLLIEDLRDKAVSHRVPRWYRDAMPDTRSVLLIPVKVRNRCVAMICGDWGATRIAGGLTDGELIAAGDLAGEIATAVLRSAPQR | not soluble
2 | MNIPMYIVDAFTDRPFAGNPAAVCLLPQPVGDEWMQRVAAEMNLSETAFLVPHEGGYRLRWFTPKAEVDLCGHATLASAHVLWERGERRADEAIAFFTNSGVLTAINNDGWIRLDFPNETPVRVESPPAALVGALPAEPLFIGRNRFDYLVEIGSEQEVRRLTPDFRLLQEVDARGIIVTSRSAAEEMDFVSRAFFPALGVPEDPVTGSAHCCLGPYWADKLGKTTLVGYQASARGGIVRVMVSGERVQLEGKAVTVLKGDLAAEAAFGLQPI | not soluble
3 | MGSDKIHHHHHHACDGILEGIYDSPAASDSNELGFIRTDPSTHSGTIYIDATDYRRWTFIDFHTQKVDSVNVTDSEQKEPEEWDIAVHRYDVKTNAGAVLETGFTGFSALRNADAMPEGAYVEDVWTTAKIAIDMSGMMDGNIVYMESYYNEELSKWLNVDKSNMPPTYTLSNKVYMVKLKDGTYAAVRLTNYMNASGVKGFMTIDYIYPFEL | not soluble
4 | MSLKNNSEVFNVLHFSDIHIQLRYNVGAEANCTNLPCGAPDSYNKQLLPSSYNFSSYYQHFSPNVAKMEFSFYPDAHYDENSQYIKGDYYDFPLYRGWNFKNAPATSFGGYLTDSPAVLMNSSLISMAKMHKEKNFEFAIFTGDVVDHLLLSCTPEYTKEEEVKSFKAMKFFFNNLTVLPALGNHETGEYGQLSPIAYDFNGSYSWNQDEMVDLWINNEWFPAKDRYDLKSHYAGFSYVTNRGLKVIGLNSNAYYQKNLWSYIDLSTNPDLFGQWEFLVNELIESEEKGQRVWIMAHIPTTDYDTLPLQSRIFGKIVERFSPYTIANIFFAHTHMDQTHILYSTNSSKEAEDIINMSWVMQSVTPLANYNPSWRYYEVENESFNIINSFNYMTKLNDTFVNGGEEPVWEFEYSARELYDPKKTWPERAPLNATFWHKYVFERLRNESDIEFNQQYSNIRYREGHHHHHH | not soluble
5 | MGSDKIHHHHHHMLLRKAFKFEIRPNGEQIRKIKQFCGCSRFVFNRALAWQNEQYEQDNNQKFSYSKLTSLLPQWKKELIWLKECHSQVLQQSLKDLESAFKNFFQQRADFPKFKKKGIKESFRFPQGCKIQPQNDRLYLPKIGWVRYRNSREIVGEVKNVTVSQKCGRFFVSIQTEFEHEIPMHKGGEIGIDMGIARFATLSNGEFFEPINAFKTYKGKLAKLQKQLKNKVKFSKNWQKLKEKIGKLHHKIANCRKDFLHKISTQISKNHAMIYVEDLQVANMSKSAKGTVEAHGKNVKQKSGLNRSIRDQSWFEFRRQLDYKTQWLGGFLVAVPAQNTSRTCPCCGHIAKENRETQAHFECVECGYTENADVVGAMNVLTRGQAIVQA | not soluble
6 | VTLNTIALELVPPNLEGGKERAIEDARKVVQYSAASGLDGRIRHVMMPGMIAEDDDRPIPMQPKLDVLDFWSIIKPELAGVHGLCTQVTAFMDEPSLHRRLVDLSDAGMEGIVFVGVPRTMQDGEGSGVAPTDALSLYRQLVANRGVIVIPTRDGEQGRLNFKCSRGATYGMTQLLYSDAIVGFLREFARTTEHRPEILLSFGFVPKVETRIGLINWLIQDPGNAAVADEQAFVQKLAGSEPARRRRLMVDLYKRVLDGVADLGFPLSIHLEATYGVSAAAFETFAEMLAYWSPAEPGKPD | not soluble
7 | QKDFSWNASLLYAFNRNKVKHISVQPSLWDSRISMPTSYPMVGKPLYGIYAYKWAGLNENGDPQVYDAENNVTSGPARDYHALVYCGTTVPIHNASLTNVLRYKGFEFSAMLILDAGHKLRSSNIPSINMSNGRITSTAKGIVDRWTQPGDVTDVPRLLFSNDTENFNTHRTELYRYSDLFVYDASNIRLSNISLAYRVPAHWCKKISLSGARLQFNVENVATFAFDSKANYDLGGKVKPNYVWGLYLNF | not soluble
8 | RDPIGYEKMFSKLRGGIVHARETAKRIAASPIVEQEGELCFTLYNAVGDSVLTSTGIIIHVGTMGSAIKYMVENNWEDNPGINDKDIFTNNDCAIGNVHPCDIMTLVPIFHDEKLIGWVGGVTHVIDTGSVTPGSMSTGQVQRFGDGYMITCRKTGANDESFKDWLHESQRSVRTPKYWILDERTRIAGCHMIRDLVMEVIKEDGIDSYMRFIDEVIEEGRRGLISRIKSMTIPGKYRKVAFVDVPYAHKDIGVCSEFAKLDTIMHSPVEITINKDATWKLDFDGASRWGWHSFNCNQVSFTSGIWVMMTQTLIPTSRINDGAYFATQFRLKKGTWMNPDDRRTGHAYAWHFLVSGWSALWRGLSQAYYSRGYLEEVNSGNANTSNWLQGGGINQDGEIHAVNSFETSSCGTGACAIKDGLNHAAAIWNPEGDMGDVEIWEMAEPLLYLGRNVKANTGGYGKYRGGNGFETLRMVWGAHDWTMFFMGNGYMNSDWGMMGGYPAASGYRFEAHNTDLKNRIKNNASLPLGGDFNPTDRDYEKHISHASQVKRDKQCITTENCFDNYDLYLNYIKGGPGFGDPIERDLNAILEDLNSKQL | not soluble
9 | MGHHHHHHSHMKPHFRNTVERMYRDTFSYNFYNRPILSRRNTVWLCYEVKTKGPSRPRLDAKIFRGQVPRSFIRAPFQVLSSPFGQCAPPHGTAQVQWPPQLTAGREQGRP | not soluble
10 | MYVECLSSTTPPIDVFDYLSFFVFNKKDNKYLSIQDVEVKRFSSSKTVWGLPKAMSLETFTDPAKGFIVEGEPCEFGAHVKIASSPVPVDENLPFHKFSWSIRDFSVLKQNDCISKTFAMGGKNWTLTVYPKGDSEADNEFCKYLHLADGEVLSPGEMISVRAQLRALDPRGSKHKTVWLQQWIMAATKARGIPQSLSLADLQEAYLDEDTLNVEIECEVVNSRKMF | soluble
11 | MGSDKIHHHHHHMHQFLRAIGFSDITKKQLNEVINNIIDKPEKLKVTKDFEGNEFAELSCDVAPNMGITVRGIYNDDDSFDIDYYYPYFTGSEKTTNEIIDIEKHSEKESYAGVCDDPNLGVTLIFYLQNVCDYLSEKAYINREVRAKGAVLSGLSVDGCILLPMKQKKAKTLNTVDSDKKDRKQLIAEARDGDESAMESLTMEDIDLYSSITRRIQNEDILSIVTTYFMPYGIESDQYSVLGDIIELTEEKNIITNEKIYCIKVSCNDIIFSVCINKNDLIGEPMVGRRFKGNIWMQGSICL | not soluble
12 | MRLVLSSLIVIAGLLSSQATAATAPEQTASADIRDSGFVYCVSGQVNTFNPQKASSGLIVDTLAAQLYDRLLDVDPYTYRLVPELAESWEVLDNGATYRFHLRRDVSFQKTAWFTPTRKLNADDVVFTFQRIFDRRHPWHNINGSSFPYFDSLQFADNVKSVRKLDNNTVEFRLTQPDASFLWHLATHYASVMSAEYAAQLSRKDRQELLDRQPVGTGPFQLSEYRAGQFIRLQRHDGFWRGKPLMPQVVVDLGSGGTGRLSKLLTGECDVLAWPAASQLTILRDDPRLRLTLRPGMNIAYLAFNTDKPPLNNPAVRHALALSINNQRLMQSIYYGTAETAASILPRASWAYDNDAKITEYNPQKSREQLKALGIENLTLHLWVPTSSQAWNPSPLKTAELIQADMAQVGVKVVIVPVEGRFQEARLMDMNHDLTLSGWATDSNDPDSFFRPLLSCAAINSQTNFAHWCNPEFDSVLRKALSSQQLASRIEAYEEAQNILEKELPILPLASSLRLQAYRYDIKGLVLSPFGNASFAGVSREKHEEVKKP | not soluble
13 | EIRLSNTQQTYAFLKKRLRDYKNETFAALFLDNQHRIIAYEELFSGTINTATVYPRPIVERVLQLNAAALILAHNHPSGLSDASQQDLAITERIRDALDLVDARLLDHIVIGDNEVYSIFAENKWVCN | not soluble
14 | ARSSRFTRQADETLTDSEGSGLQFINFDEGSASNPIIARDQEGSGQMYDEEGSGNTLLFDSETPIQVMNVTGTEAEPTDSKVFNQSINITDSDVETLVIKVHLPQKTTSQLLDDLKDDTAQQTNPINTLDTAVSLTSMLNELLGKIQDATTQ | not soluble
